Assay results taken from patent US11236163.

Legend:
[1] = target: T1, recombinant human LAG-3 fusion protein (human, UniProt P18627); assay: SPR
T1 chain: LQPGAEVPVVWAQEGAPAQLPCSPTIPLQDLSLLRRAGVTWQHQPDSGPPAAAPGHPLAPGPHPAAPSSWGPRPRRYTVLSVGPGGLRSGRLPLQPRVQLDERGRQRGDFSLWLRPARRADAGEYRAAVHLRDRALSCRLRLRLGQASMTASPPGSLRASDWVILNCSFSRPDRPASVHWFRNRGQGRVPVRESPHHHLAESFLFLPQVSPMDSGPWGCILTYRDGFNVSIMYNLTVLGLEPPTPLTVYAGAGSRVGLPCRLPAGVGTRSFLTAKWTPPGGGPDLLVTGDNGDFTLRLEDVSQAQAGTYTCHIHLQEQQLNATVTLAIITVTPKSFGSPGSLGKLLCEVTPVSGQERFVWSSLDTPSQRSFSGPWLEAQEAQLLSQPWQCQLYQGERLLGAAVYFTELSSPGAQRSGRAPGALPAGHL

[2] = target: T2, human LAG-3 (cell surface) (human, UniProt P18627); assay: FACS, CHO-human LAG-3
T2 chain: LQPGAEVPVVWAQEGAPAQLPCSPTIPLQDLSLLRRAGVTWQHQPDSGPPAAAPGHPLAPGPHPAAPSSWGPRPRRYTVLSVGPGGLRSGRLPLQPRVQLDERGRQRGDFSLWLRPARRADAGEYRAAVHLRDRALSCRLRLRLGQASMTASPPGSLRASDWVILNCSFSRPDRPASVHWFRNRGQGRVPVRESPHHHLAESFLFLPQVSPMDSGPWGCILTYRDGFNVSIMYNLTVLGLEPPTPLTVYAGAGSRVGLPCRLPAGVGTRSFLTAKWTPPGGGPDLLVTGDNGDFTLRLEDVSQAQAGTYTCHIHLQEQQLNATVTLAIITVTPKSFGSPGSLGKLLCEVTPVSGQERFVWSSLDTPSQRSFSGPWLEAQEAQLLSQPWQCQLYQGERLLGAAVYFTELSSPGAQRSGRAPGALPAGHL

Kd [1]: 4.53 nM
EC50 [2]: 12.3 nM
B1: 17E5 (antibody)
chain 1: not shown
chain 2: EIVLTQSPATLSLSPGERATLSCRASQSVSSYLAWYQQKPGQAPRLLIYDASNRATGIPARFSGSGSGTDFTLTISSLEPEDFAVYYCQQRSNWPITFGQGTRLEIK
